Patent US20200017592A1 (Regeneron, published 2020)

Tests used:
[1] = molecular target: T1, human IL-36R extracellular domain expressed with a C-terminal mouse IgG2a Fc tag (hIL-36R-mFc) (human; mouse, UniProt Q9HB29 20-337); experiment: SPR Biacore 4000, mAb captured on anti-hFc, 25C
T1 construct: not shown: mouse IgG2a Fc, E98-K330
T1 sequence (looked up): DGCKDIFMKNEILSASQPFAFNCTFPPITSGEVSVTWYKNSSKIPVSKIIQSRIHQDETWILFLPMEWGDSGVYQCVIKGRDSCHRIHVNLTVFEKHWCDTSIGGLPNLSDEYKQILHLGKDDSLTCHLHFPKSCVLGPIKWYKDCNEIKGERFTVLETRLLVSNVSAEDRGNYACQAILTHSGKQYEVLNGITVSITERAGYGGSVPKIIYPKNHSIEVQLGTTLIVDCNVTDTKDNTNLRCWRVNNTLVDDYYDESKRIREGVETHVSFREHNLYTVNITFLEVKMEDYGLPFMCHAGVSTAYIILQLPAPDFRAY
Procedure, shortened: (§1)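 KD and t½ derived from ka/kd of 1:1 fits; mAb on anti-hFc capture; analyte 100–3.7 nM, 4 min on, 10 min off, 30 μL/minute; HBS-ET buffer with 0.01 M Hepes pH 7.4, 0.15 M NaCl.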

[2] = molecular target: T2, in-line fusion protein of human IL-36R extracellular domain and IL1RAcP extracellular domain expressed with … (human; mouse, UniProt Q9HB29 20-337; Q9NPH3 21-359, limits assumed); experiment: SPR Biacore 4000, mAb captured on anti-hFc, 25C
T2 construct: not shown: mouse IgG2a Fc
T2 sequence (looked up): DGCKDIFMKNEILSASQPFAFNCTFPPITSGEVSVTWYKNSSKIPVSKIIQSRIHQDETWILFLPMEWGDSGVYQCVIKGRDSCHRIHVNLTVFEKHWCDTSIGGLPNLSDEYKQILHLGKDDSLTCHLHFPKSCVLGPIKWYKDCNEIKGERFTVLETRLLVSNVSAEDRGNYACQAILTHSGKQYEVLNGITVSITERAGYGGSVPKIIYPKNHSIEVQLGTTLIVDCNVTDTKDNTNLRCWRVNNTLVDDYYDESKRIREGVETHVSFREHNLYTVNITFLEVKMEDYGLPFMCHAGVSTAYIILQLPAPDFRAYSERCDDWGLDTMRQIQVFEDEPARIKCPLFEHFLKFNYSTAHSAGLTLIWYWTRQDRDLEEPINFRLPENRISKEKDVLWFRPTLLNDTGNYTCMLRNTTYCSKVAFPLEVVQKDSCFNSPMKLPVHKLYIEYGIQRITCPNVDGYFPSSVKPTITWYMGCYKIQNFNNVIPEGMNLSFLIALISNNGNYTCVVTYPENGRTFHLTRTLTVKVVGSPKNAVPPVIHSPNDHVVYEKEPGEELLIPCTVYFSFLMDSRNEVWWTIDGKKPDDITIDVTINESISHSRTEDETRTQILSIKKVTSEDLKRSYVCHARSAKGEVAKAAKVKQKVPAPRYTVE
Procedure, shortened: as §1

[3] = molecular target: T1, human IL-36R extracellular domain …; experiment: SPR Biacore 4000, mAb captured on anti-hFc, 37C
Procedure, shortened: as §1

[4] = molecular target: T2, in-line fusion protein of human IL-36R …; experiment: SPR Biacore 4000, mAb captured on anti-hFc, 37C
Procedure, shortened: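 Analyte 100 nM–3.7 nM (3-fold), 4 min association at 30 μL/minute, 10 min dissociation; HBS-ET pH 7.4 running buffer; antibody captured via anti-hFc. ka, kd from 1:1 model fit; KD and t½ derived from rate constants.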

[5] = molecular target: T3, human IL-36R extracellular domain expressed with a C-terminal myc-myc-hexahistidine tag (hIL-36R-MMH) (human, UniProt Q9HB29 20-337); experiment: SPR Biacore T200, mAb captured on anti-hFc, 25C, PBS-T pH 6.0 running buffer
T3 construct: also called Human IL-36R-MMH; REGN2105
Procedure, shortened: (§2)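 Antibodies captured on an anti-human Fc surface; hIL-36R-MMH injected at 100-11.11 nM (3-fold) in PBS-T pH 7.4 for 4 min at 50 μL/min. Dissociation followed 10 min in PBS-T pH 7.4 or pH 6.0 at 25 °C or 37 °C; kd from 1:1 fit, t1/2 derived from kd.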

[6] = molecular target: T3, human IL-36R extracellular domain …; experiment: SPR Biacore T200, mAb captured on anti-hFc, 25C, PBS-T pH 7.4 running buffer
Procedure, shortened: as §2

[7] = molecular target: T3, human IL-36R extracellular domain …; experiment: SPR Biacore T200, mAb captured on anti-hFc, 37C, PBS-T pH 6.0 running buffer
Procedure, shortened: as §2

[8] = molecular target: T3, human IL-36R extracellular domain …; experiment: SPR Biacore T200, mAb captured on anti-hFc, 37C, PBS-T pH 7.4 running buffer
Procedure, shortened: as §2

B1: H4H14757P (antibody, human IgG4 S228P, kappa, V domains shown)
VH: EVQLVESGGGLVQPGRSLRLSCTASGFTFDDYAMHWVRQAPGKGLEWVSGIRWNGGSIGYVDSVKGRFTISRDNAKKSLHLQMNSLKTEDTALYYCAKDIGDILTGFYGEYGMDVWGQGTTVTVSS
VL: DIQMTQSPSSLSASEGDRVTITCRASQSISSYLNWYQQKAGKAPNLLIYAASSLQSGVPSRFSGSGSGTEYTLTISSLQPEDFATYYCQQSYIIPYTFGQGTKLEIKR
notes: Fully human anti-IL-36R antibody
**Q.** What does the source list for B1?
**A.** 100 nM hIL-36R-mFc Bound (RU) [1]: 167 RU; Kd [1]: 0.173 nM; koff [1]: 9.97e-05 s⁻¹; kon [1]: 575000 M⁻¹ s⁻¹; t1/2 [1]: 116 min; 100 nM hIL-36R-Trap-mFc Bound (RU) [2]: 202 RU; Kd [2]: 0.212 nM; koff [2]: 0.000103 s⁻¹; kon [2]: 485000 M⁻¹ s⁻¹; t1/2 [2]: 113 min; 100 nM hIL-36R-mFc Bound (RU) [3]: 235 RU; Kd [3]: 0.243 nM; koff [3]: 0.00015 s⁻¹; kon [3]: 616000 M⁻¹ s⁻¹; t1/2 [3]: 77 min; 100 nM hIL-36R-Trap-mFc Bound (RU) [4]: 281 RU; Kd [4]: 0.374 nM; koff [4]: 0.000196 s⁻¹; kon [4]: 523000 M⁻¹ s⁻¹; t1/2 [4]: 59 min; 100 nM Human IL-36R-MMH Bound (RU) [5]: 98 RU; koff [5]: 0.000887 s⁻¹; t1/2 [5]: 13 min; 100 nM Human IL-36R-MMH Bound (RU) [6]: 105 RU; koff [6]: 0.000597 s⁻¹; t1/2 [6]: 19 min; 100 nM hIL-36R-MMH Bound (RU) [7]: 109 RU; koff [7]: 0.0026 s⁻¹; t1/2 [7]: 4 min; 100 nM hIL-36R-MMH Bound (RU) [8]: 113 RU; koff [8]: 0.00129 s⁻¹; t1/2 [8]: 9 min

B2: H4H14758P (antibody, human IgG4 S228P, kappa, V domains shown)
VH: EVQLVESGGGLVQPGRSLRLSCAASGFTFDDYAMHWVRQAPGKGLEWVSSVRWNGGIIGYADSVKGRFTISRDNAKNSLYLQMNSLRPEDTALYYCAKDIGDVLTGYYGEYGMDVWGQGTTVTVSS
VL: DIQMTQSPSSLSASVGDRVTIACRASQSITTYLNWYQQKPGKAPKLLIYAASSLQSGVPSRFSGSGSGTDFTLTISSLQPEDFATYYCQQSYISPYTFGQGTKLEIKR
notes: as for B1
**Q.** For B2, which “100 nM hIL-36R-mFc Bound (RU)” value [1] is on record?
**A.** 161 RU

**Q.** And the Kd [1]?
**A.** 0.309 nM

**Q.** What about the koff [1] of the same binder?
**A.** 0.000163 s⁻¹

**Q.** And the kon [1]?
**A.** 526000 M⁻¹ s⁻¹

**Q.** And the t1/2 [1]?
**A.** 71 min

**Q.** What about the “100 nM hIL-36R-Trap-mFc Bound (RU)” value [2] of the same binder?
**A.** 197 RU

**Q.** What about the Kd [2] of the same binder?
**A.** 0.413 nM

**Q.** What about the koff [2] of the same binder?
**A.** 0.00018 s⁻¹

**Q.** And the kon [2]?
**A.** 436000 M⁻¹ s⁻¹

**Q.** And the t1/2 [2]?
**A.** 64 min

**Q.** What about the “100 nM hIL-36R-mFc Bound (RU)” value [3] of the same binder?
**A.** 210 RU

**Q.** What about the Kd [3] of the same binder?
**A.** 0.517 nM

**Q.** And the koff [3]?
**A.** 0.000286 s⁻¹

**Q.** And the kon [3]?
**A.** 554000 M⁻¹ s⁻¹

**Q.** What about the t1/2 [3] of the same binder?
**A.** 40 min

**Q.** What about the “100 nM hIL-36R-Trap-mFc Bound (RU)” value [4] of the same binder?
**A.** 251 RU

**Q.** What about the Kd [4] of the same binder?
**A.** 0.777 nM

**Q.** What about the koff [4] of the same binder?
**A.** 0.000363 s⁻¹

**Q.** And the kon [4]?
**A.** 468000 M⁻¹ s⁻¹

**Q.** What about the t1/2 [4] of the same binder?
**A.** 32 min

**Q.** And the “100 nM Human IL-36R-MMH Bound (RU)” value [5]?
**A.** 103 RU

**Q.** What about the koff [5] of the same binder?
**A.** 0.0018 s⁻¹

**Q.** And the t1/2 [5]?
**A.** 6 min

**Q.** And the “100 nM Human IL-36R-MMH Bound (RU)” value [6]?
**A.** 108 RU

**Q.** What about the koff [6] of the same binder?
**A.** 0.00112 s⁻¹

**Q.** What about the t1/2 [6] of the same binder?
**A.** 10 min

**Q.** What about the “100 nM hIL-36R-MMH Bound (RU)” value [7] of the same binder?
**A.** 120 RU

**Q.** What about the koff [7] of the same binder?
**A.** 0.00339 s⁻¹

**Q.** What about the t1/2 [7] of the same binder?
**A.** 3 min

**Q.** And the “100 nM hIL-36R-MMH Bound (RU)” value [8]?
**A.** 126 RU

**Q.** What about the koff [8] of the same binder?
**A.** 0.00226 s⁻¹

**Q.** What about the t1/2 [8] of the same binder?
**A.** 5 min

B3: H4H14760P2 (antibody, human IgG4 S228P, kappa, V domains shown)
VH: QVQLVESGGGVVQPGKSLRLSCAASGFTFSNYGIHWVRQAPGKGLEWVAIILYDGSNQHYADSVKGRFTISRDNSKNTLYLQMNNLRAEDTAVYYCARDLDLWSGYYTNGDGMDVWGQGTTVTVSS
VL: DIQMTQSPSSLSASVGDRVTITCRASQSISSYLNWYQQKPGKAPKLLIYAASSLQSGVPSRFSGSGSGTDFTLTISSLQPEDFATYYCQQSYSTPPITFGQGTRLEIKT
notes: as for B1
**Q.** Which “100 nM hIL-36R-mFc Bound (RU)” value [1] does the source give for B3 here?
**A.** 121 RU

**Q.** And the Kd [1]?
**A.** 0.526 nM

**Q.** What about the koff [1] of the same binder?
**A.** 0.000109 s⁻¹

**Q.** What about the kon [1] of the same binder?
**A.** 207000 M⁻¹ s⁻¹

**Q.** What about the t1/2 [1] of the same binder?
**A.** 106 min

**Q.** What about the “100 nM hIL-36R-Trap-mFc Bound (RU)” value [2] of the same binder?
**A.** 134 RU

**Q.** And the Kd [2]?
**A.** 0.636 nM

**Q.** And the koff [2]?
**A.** 0.0001 s⁻¹

**Q.** What about the kon [2] of the same binder?
**A.** 158000 M⁻¹ s⁻¹

**Q.** What about the t1/2 [2] of the same binder?
**A.** 115 min

**Q.** What about the “100 nM hIL-36R-mFc Bound (RU)” value [3] of the same binder?
**A.** 173 RU

**Q.** And the Kd [3]?
**A.** 1.02 nM

**Q.** What about the koff [3] of the same binder?
**A.** 0.000222 s⁻¹

**Q.** And the kon [3]?
**A.** 217000 M⁻¹ s⁻¹

**Q.** And the t1/2 [3]?
**A.** 52 min

**Q.** What about the “100 nM hIL-36R-Trap-mFc Bound (RU)” value [4] of the same binder?
**A.** 195 RU

**Q.** What about the Kd [4] of the same binder?
**A.** 1.7 nM

**Q.** And the koff [4]?
**A.** 0.000283 s⁻¹

**Q.** And the kon [4]?
**A.** 166000 M⁻¹ s⁻¹

**Q.** What about the t1/2 [4] of the same binder?
**A.** 41 min

**Q.** What about the “100 nM Human IL-36R-MMH Bound (RU)” value [5] of the same binder?
**A.** 69 RU

**Q.** What about the koff [5] of the same binder?
**A.** 0.000972 s⁻¹

**Q.** And the t1/2 [5]?
**A.** 12 min

**Q.** What about the “100 nM Human IL-36R-MMH Bound (RU)” value [6] of the same binder?
**A.** 80 RU

**Q.** What about the koff [6] of the same binder?
**A.** 0.000545 s⁻¹

**Q.** What about the t1/2 [6] of the same binder?
**A.** 21 min

**Q.** What about the “100 nM hIL-36R-MMH Bound (RU)” value [7] of the same binder?
**A.** 85 RU

**Q.** What about the koff [7] of the same binder?
**A.** 0.0039 s⁻¹

**Q.** And the t1/2 [7]?
**A.** 3 min

**Q.** What about the “100 nM hIL-36R-MMH Bound (RU)” value [8] of the same binder?
**A.** 94 RU

**Q.** And the koff [8]?
**A.** 0.00187 s⁻¹

**Q.** What about the t1/2 [8] of the same binder?
**A.** 6 min
